From patent publication CN116615457A (ICONOSCO S A, dated 2023)
Changes are numbered by the printed parent chain. Each block holds one binder with its values, some of them ahead of it.

Key:
[1] = target: T1, 重组人IL-1RAP-ECD(S21-E359)-avi-his蛋白 (human, UniProt Q9NPH3 21-359, biotinylated in the BLI binning assay); experiment: SPR; IgG1 LALA captured on anti-human IgG Fc chip, human IL-1RAP-avi-his as analyte
T1 construct: also called 人IL-1RAP-ECD-Avi-His; 重组人IL-1RAP-avi-his蛋白
T1 sequence: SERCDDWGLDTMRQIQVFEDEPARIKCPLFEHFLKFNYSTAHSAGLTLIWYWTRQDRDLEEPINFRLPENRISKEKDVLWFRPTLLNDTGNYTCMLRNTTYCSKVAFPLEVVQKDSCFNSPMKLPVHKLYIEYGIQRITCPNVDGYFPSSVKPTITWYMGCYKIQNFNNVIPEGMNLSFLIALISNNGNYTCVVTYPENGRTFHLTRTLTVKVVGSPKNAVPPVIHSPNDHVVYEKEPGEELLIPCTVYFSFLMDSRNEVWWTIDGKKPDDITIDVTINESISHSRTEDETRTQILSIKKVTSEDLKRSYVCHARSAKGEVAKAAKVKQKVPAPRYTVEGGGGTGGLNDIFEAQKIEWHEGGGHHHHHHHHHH

[2] = target: T2, 重组食蟹猴IL-1RAP-ECD(S21-E359)-avi-his蛋白 (cynomolgus monkey, UniProt P59822 21-359 (rhesus entry), biotinylated in the Fab SPR assay); experiment: SPR; IgG1 LALA captured on anti-human IgG Fc chip, cynomolgus IL-1RAP-avi-his as analyte
T2 construct: also called 食蟹猴IL-1RAP-ECD-Avi-His; 重组食蟹猴IL-1RAP-avi-his蛋白
T2 sequence: T1 sequence with L183F, T273P, K326T

[3] = target: T3, 膜结合的小鼠IL-1RAP (NIH-3T3细胞) (mouse, UniProt Q61730 21-570); experiment: flow cytometry (Fig. 11 legend)
T3 construct: whole, on cells; also called mouse IL-1RAP on NIH-3T3 cells
T3 sequence (looked up): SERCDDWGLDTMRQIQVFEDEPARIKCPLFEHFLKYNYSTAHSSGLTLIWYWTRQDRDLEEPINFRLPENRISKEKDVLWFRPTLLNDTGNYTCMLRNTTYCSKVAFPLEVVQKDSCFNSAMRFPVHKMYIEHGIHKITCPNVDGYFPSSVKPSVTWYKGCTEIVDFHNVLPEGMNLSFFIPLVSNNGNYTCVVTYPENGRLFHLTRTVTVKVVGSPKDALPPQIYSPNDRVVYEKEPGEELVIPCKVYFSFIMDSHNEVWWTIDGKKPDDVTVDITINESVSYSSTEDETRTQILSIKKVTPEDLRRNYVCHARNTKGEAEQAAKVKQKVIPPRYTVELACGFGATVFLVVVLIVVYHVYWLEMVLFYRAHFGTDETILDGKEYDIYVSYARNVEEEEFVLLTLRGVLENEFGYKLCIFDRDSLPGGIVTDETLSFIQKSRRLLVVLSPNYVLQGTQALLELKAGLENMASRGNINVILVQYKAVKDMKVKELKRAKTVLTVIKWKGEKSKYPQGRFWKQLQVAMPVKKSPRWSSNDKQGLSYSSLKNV

[4] = target: T2, 重组食蟹猴IL-1RAP-ECD(S21-E359)-avi-his蛋白; experiment: SPR; KD on cynomolgus IL-1RAP against KD on human IL-1RAP

- binding result [1]: binds
- binding result [2]: binds
B1: 抗IL-1RAP-C8-RecC IgG1 LALA (antibody, V domains shown)
VH: QVQLVQSGAEVKKPGSSVKVSCKASGSPAEPYAIQWVRQAPGQGLEWMGYIIPSLGGYDYAQKFQGRVTITADESTSTAYMELSSLRSEDTAVYYCARGQTLYDSGRQFDIWGQGTLVTVSS
VL: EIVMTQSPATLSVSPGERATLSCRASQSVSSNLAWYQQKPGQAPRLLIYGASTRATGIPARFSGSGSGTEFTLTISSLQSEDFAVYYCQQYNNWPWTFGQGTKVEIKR
notes: Human IgG1 LALA format; also called 亲本克隆抗IL-1RAP-C8-RecC; anti-IL-1RAP-C8-RecC IgG1 LALA

- binding result [3]: binds
B2: 抗IL-1RAP-C3-A3-mmIgG2a-LALA (antibody, V domains shown)
VH: EVQLLESGGGLVQPGGSLRLSCAASGFIFSHYGMSWVRQAPGKGLEWVSAISYDGEGTLYADSVKGRFTISRDNSKNTLYLQMNSLRAEDTAVYYCARFRYYTAFDYWGQGTLVTVSS
VL: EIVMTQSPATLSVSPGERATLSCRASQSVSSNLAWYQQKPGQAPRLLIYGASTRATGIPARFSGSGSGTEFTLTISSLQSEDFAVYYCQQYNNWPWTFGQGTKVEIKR
notes: Mouse IgG2a LALA; also called 抗IL-1RAP-C3-A3小鼠IgG2a LALA; 抗IL-1RAP-C3-A3克隆

- fold lower affinity than for human IL-1RAP [4]: ~40 fold
B3: 抗IL-1RAP-UCP02-C3 Fab (Fab, V domains shown)
VH: B2 VH with I28T, S30R, H31D, G33A, S35G
VL: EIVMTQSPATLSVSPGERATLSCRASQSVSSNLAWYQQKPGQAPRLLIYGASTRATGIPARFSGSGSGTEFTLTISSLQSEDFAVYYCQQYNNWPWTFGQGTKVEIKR
notes: also called 抗IL-1RAP-C3; 抗IL-1RAP-C3 Fab
